These results are taken from article PMC4081077, “Sequence-specific interactions of Rep proteins with ssDNA in the AT-rich region of the plasmid replication origin”.

A value given as a limit tells only on which side of the number the result lay.

Data set [1] concerns the target T1, TrfA-33 G254D/S267L (monomeric) (plasmid RK2, UniProt P07676 98-382, G254D;S267L).
T1 sequence: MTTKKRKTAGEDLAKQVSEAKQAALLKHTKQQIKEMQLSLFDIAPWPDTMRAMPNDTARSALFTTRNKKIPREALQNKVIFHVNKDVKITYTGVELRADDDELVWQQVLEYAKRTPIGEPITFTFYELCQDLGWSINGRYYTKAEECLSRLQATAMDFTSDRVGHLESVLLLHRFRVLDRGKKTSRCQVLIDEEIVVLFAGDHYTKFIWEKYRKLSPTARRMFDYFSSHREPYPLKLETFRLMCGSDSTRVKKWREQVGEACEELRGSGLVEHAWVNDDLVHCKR
In words: EMSA; up to 20 pmol TrfA per 1 pmol probe; EMSA: 40 mM HEPES-KOH pH 8, 25 mM Tris-HCl pH 7.6, 100 mM NaCl, 4% sucrose, 4 mM DTT, 80 ug/ml BSA, 32 C 20 min, 1 pmol probe, 5-20 pmol Rep; SPR: HBS-EP (150 mM NaCl, 10 mM HEPES pH 7.4, 3 mM EDTA, 0.005% P20). The note with it: protein: recombinant; label: Alexa555 3' tailed (EMSA); immobilized on streptavidin chip (SPR); fluorescent (gel filtration). A general note: Mobility shift assays separate free from complexed probe on a gel.

Data set [2] addresses T1, TrfA-33 G254D/S267L (monomeric). Put plainly: EMSA; EMSA: 40 mM HEPES-KOH pH 8, 25 mM Tris-HCl pH 7.6, 100 mM NaCl, 4% sucrose, 4 mM DTT, 80 ug/ml BSA, 32 C 20 min, 1 pmol probe, 5-20 pmol Rep; SPR: HBS-EP (150 mM NaCl, 10 mM HEPES pH 7.4, 3 mM EDTA, 0.005% P20). The settings on record: protein: recombinant; label: Alexa555 3' tailed (EMSA); immobilized on streptavidin chip (SPR); fluorescent (gel filtration).

Data set [3] has the same target. In words: SPR; 0.1-1 uM TrfA; response over five times lower than wild type; EMSA: 40 mM HEPES-KOH pH 8, 25 mM Tris-HCl pH 7.6, 100 mM NaCl, 4% sucrose, 4 mM DTT, 80 ug/ml BSA, 32 C 20 min, 1 pmol probe, 5-20 pmol Rep; SPR: HBS-EP (150 mM NaCl, 10 mM HEPES pH 7.4, 3 mM EDTA, 0.005% P20). The note with it: protein: recombinant; label: Alexa555 3' tailed (EMSA); immobilized on streptavidin chip (SPR); fluorescent (gel filtration).

Another data set has as its target RepE R118P (monomeric) (plasmid F, UniProt P03856 1-251, R118P). Put plainly: gel filtration; tripartite with plasmid cccDNA; EMSA: 40 mM HEPES-KOH pH 8, 25 mM Tris-HCl pH 7.6, 100 mM NaCl, 4% sucrose, 4 mM DTT, 80 ug/ml BSA, 32 C 20 min, 1 pmol probe, 5-20 pmol Rep; SPR: HBS-EP (150 m).
In data set [4] the target is T1, TrfA-33 G254D/S267L (monomeric). In words: SPR; 0.1-1 uM TrfA; higher affinity than bottom ssDNA; EMSA: 40 mM HEPES-KOH pH 8, 25 mM Tris-HCl pH 7.6, 100 mM NaCl, 4% sucrose, 4 mM DTT, 80 ug/ml BSA, 32 C 20 min, 1 pmol probe, 5-20 pmol Rep; SPR: HBS-EP (150 mM NaCl, 10 mM HEPES pH 7.4, 3 mM EDTA, 0.005% P20). The settings on record: protein: recombinant; label: biotin; blunt.

B1: ssDNA DUEoriV top (ssDNA)
DNA: CCACCGCTAACCTGTCTTTTAACCTGCTTTTAAACCAATATTTATAAACCTTGTTTTTAACCAGGGCTGC
For the molecule B1, in data set [1], the binding result is “no binding”.

B2: ssDNA DUEoriV bottom swap M2-R (ssDNA)
DNA: CCACCGCATTGGACAGAAAATTGGACGAAAATAACCAATATTTATAAACCTTGTTTTTAACCAGGGCTGC
For B2, in data set [2], the binding result is listed as “no binding”.

B3: ssDNA DUEoriV bottom swap R (ssDNA)
DNA: CCACCGCATTGGACAGAAAATTGGACGAAAATTTGGTTATAAATTAAACCTTGTTTTTAACCAGGGCTGC
For B3, in data set [3], the binding signal is < 0.2 SPR response relative to N2.

B4: ssDNA DUEoriV bottom swap M1-R (ssDNA)
DNA: CCACCGCATTGGACAGAAAAAACCTGCTTTTAAACCAATATTTATAAACCTTGTTTTTAACCAGGGCTGC
As to B4, the binding result in data set [2] was “no binding”.

B5: ssDNA DUEoriS bottom (ssDNA)
DNA: GCTCTAAAAAAGAAGATCTAAAAACTATAAAAAAAATAATTATAAAAATATCCCCGTG
For the molecule B5, the binding result in the data set with RepE R118P (monomeric) is on record as “binds”.

B6: dsDNA iterons (five RK2 iterons) (dsDNA)
DNA 1: CCTGCGGTATTGACACTTGAGGGGCGCGACTACTGACAGATGAGGGGCGCGATCCTTGACACTTGAGGGGCAGAGTGATGACAGATGAGGGGCGCACCTATTGACATTTGAGGGGCTGTCCACAGGCAG
DNA 2: CTGCCTGTGGACAGCCCCTCAAATGTCAATAGGTGCGCCCCTCATCTGTCATCACTCTGCCCCTCAAGTGTCAAGGATCGCGCCCCTCATCTGTCAGTAGTCGCGCCCCTCAAGTGTCAATACCGCAGG
With B6, in data set [4], the binding result was “binds”.
